Drawing on article PMC9474507, this text covers Kd for 3 substances.

The target of assay [1] is pre-formed corona layer (proteins of 10% mouse serum pre-adsorbed on L-NPs) (mouse (endogenous in serum)). The assay is described as follows: BLI; L-NPs loaded on human IgG-coated AR2G biosensors, immersed in 10% mouse serum (300 s in the methods, 3 min in the text) and rinsed with water; association 300 s with 6.25-100 nM HSA or IgG, dissociation 600 s in buffer; 30 °C, 1000 rpm; 1:1 model. On the technique in general: In BLI a coated tip is dipped into the sample, and binding shifts an interference pattern.

Assay [2] has as its target Albumin purified from human serum (human) (UniProt P02768). The assay is described as follows: BLI; HSA pre-coated on L-NPs.
The target in assay [3] is Immunoglobulin G purified from human serum (human) [IgG part: P01857]. The assay is described as follows: BLI; IgG pre-coated on L-NPs.

“Albumin purified from human serum (from UniProt P02768 25-609) (natural protein)”: the Kd – broadly, the free concentration of one partner at which half of the binding sites on the other are occupied at equilibrium, for simple one-to-one binding – in assay [1] turned out to be 32.5 nM.
The same measure, in the same setting: the same measure for “Immunoglobulin G purified from human serum (antibody)”: 1.2 nM.
In the case of “Immunoglobulin G purified from human serum (from UniProt P01857)”, the results for the Kd in assay [2] and in assay [3] were under 0.001 nM and 5.1 nM, respectively.
